The source of these data is the DeepSol protein solubility set.

The data set is described as follows: soluble on expression in E. coli; label from the status in PepcDB or PDB records.
WLFFRYMAIGGYVGAATVGAAAW: the “soluble on expression in E. coli” value was “soluble”. With “MDRADLRIAVLMGTKDGAPFIDEQLQSLLAQSHPLIDLWISDDGSVDGTVPIIEAWKSRWTKGRVTLVQGPREGFAANFRSMILDRRIDADFYAFSDQDDVWEPDRLESAVQWMQAFGAEPPLMFCSRTATMTETGSLAGHSPLFRRPPSFRNALVQSIAGGNTILLNRAARDLLARASARTGFVSHDWWAYLVVTGAGGVVHYDPRPLVRYRQHAANLVGANVSWAARVSRLGRLFKGEFADWTDLNLAGLAVNRDLLTPDAATCLDLFASGRQGSLFQRLRTLLVSGVYRQTLAGTLGLYLAFVLGRILEHHHHHH” the entry was “not soluble”. Regarding “MNAADDKTIVREYFNSTGFDRWKRIYGDGEVNKVQLDIRNGHQQTVDSVIGWLKNDGNLAELSICDAGCGVGSLSIPLATEGAKVYASDISEKMVEEGKQRALETLGNAENPTFAVQDLESLSGSYHTVICLDVLIHYPQEKADEMISHLCSLAQSRIILSFAPKTCALTLLKKIGSFFPGPSKTTRAYLHREADVIKILESNGFAIQRKEFTKTRFYFSRILEATRSLEHHHHHH”, the “soluble on expression in E. coli” value is on record as “soluble”.

Regarding “MVPPNDEIEDGFYLIDDSNHDEDLDFSDFPWLDPDHPLFFPATQANNSKGSTRWDAVNKFSVENWYPHLRKHTFKSHFITLNYNDIHYLMGNIPPDYDSSKLESIFNKILSEFNNKEVFMRLSTRSPKDSKFLFEEASTIMSKDFVYWNENDNKHQQLVSFVASMLKAMKIKSGRKIIETIAQSPRVYNDLLALVSSSNQSDCTTNVILREWHDIRPDHEFRVFVSRRHRKESIVTAISQYFHFLYFDKSPADCFNFLDEEDKKAVIKKFENYVLKSVDPDVAKFLNFSSEQDDDESSDCIREYIVDLALIPVSQYHGEITDENIIEIGANTYVMVVIELNPFAPAATGSGLFNWKNDLEHHHHHH”, the “soluble on expression in E. coli” value is “soluble”. Turning to “MPSYKLTYFDACGFGESARMLFHLGGVPYEDVRLPTINAVPGFQSDEFSALKDKTPFGRFTVLSIDGFDLAQSSAIHRYLARKFGYAGKTPEDEAFADSIVDQFNEYYASLHPYRDAVKTGKTMEEVKQIHDKVYIPAKNLMFKILTRILKENKSGFLVGDGLTWADLVVADHLYTLTNLKELDPEDPIHLTLRKFQEKIFNLTELKDYIETRPVTLV”, the “soluble on expression in E. coli” value is recorded as “not soluble”. As for “MSLQKRVTDEDIKERLDKIGFRIAVMSGKGGVGKSTVTALLAVHYAKQGKKVGILDADFLGPSIPHLFGLEKGKVAVSDEGLEPVLTQRLGIKVMSIQFLLPKRETPVIWRGPLIAGMIREFLGRVAWGELDYLLIDLPPGTGDAPLTVMQDAKPNGAVIVSTPQELTAAVVEKAITMAEQTKTAVLGIVENMAYFECPNCGERTYLFGEGKASELARKYKIEFITEIPIDSDLLKLSDLGRVEEYEPDWFEFFPYEGGSHHHHHH”, the “soluble on expression in E. coli” value was “soluble”. For the sequence “MRAPLSTYRRPQRTDFVTPTGGPFFAKQDKALNTIDLKMAHDLKLRGYRVKVAVVDEGVRSDHPLLNVEKKYGGDYMADGTRTYPDPKRQGRHGTSVALVLAGQDTDTYRGGVAPNADLYSANIGTRAGHVSDEAAFHAWNDLLGHGIKIFNNSFATEGPEGEQRVKEDRNEYHSAANKQNTYIGRLDRLVRDGALLIFAAGNGRPSGRAYSEVGSVGRTPRVEPHLQRGLIVVTAVDENGRLETWANRCGQAQQWCLAAPSTAYLPGLDKDNPDSIHVEQGTSLSAPLVTGAAVLVQDRFRWMDNDNLRTTLLTTAQDKGPYGVDPQYGWGVLDVGRAVQGPAQFAFGDFVARVTDTSTFGLEHHHHHH”, the “soluble on expression in E. coli” value was “not soluble”. The result for “AAAMVPGRSESWERGEPGRPALYFCGSIRGGREDRTLYERIVSRLRRFGTVLTEHVAAAELGARGEEAAGGDRLIHEQDLEWLQQADVVVAEVTQPSLGVGYELGRAVAFNKRILCLFRPQSGRVLSAMIRGAADGSRFQVWDYEEGEVEALLDRYFEADPPGQV” reads “not soluble”; that for “AHHHHHHGSKVLVTGFEPFGGEKINPTERIAKDLDGIKIGDAQVFGRVLPVVFGKAKEVLEKTLEEIKPDIAIHVGLAPGRSAISIERIAVNAIDARIPDNEGKKIEDEPIVPGAPTAYFSTLPIKKIMKKLHERGIPAYISNSAGLYLCNYVMYLSLHHSATKGYPKMSGFIHVPYIPEQIIDKIGKGQVPPSMCYEMELEAVKVAIEVALEELL”, “soluble”; that for “MSLKARSPYSPAEEDALFMDLPTGPRGQQAQPQRAEKNGMLPASYGPGEQNGTGGYQRAFPPRTNPEKHSQRKSNLAQVEHWARAQKGDSRSLPLDQTLPRQGPGQSLSFPENYQTLPKSTRHPSGGSSPPPRNLPSDYKYAQDRASHLKMSSEERRAHRDGTVWQLYEWQQRQQFRHGSPTAPICLGSPEFTDQGRSRSMLEVPRSISVPPSPSDIPPPGPPRVFPPRRPHTPAERVTVKPPDQRRSVDISLGDSPRRARGHAVKNSSHVDRRSMPSMGYMTHTVSAPSLHGKSADDTYLQLKKDLEYLDLKMTGRDLLKDRSLKPVKIAESDTDVKLSIFCEQDRVLQDLEDKIRALKENKDQLESVLEVLHRQMEQYRDQPQHLEKIAYQQKLLQEDLVHIRAELSRESTEMENAWNEYLKLENDVEQLKQTLQEQHRRAFFFQEKSQIQKDLWRIEDVTAGLSANKENFRILVESVKNPERKTVPLFPHEGHHHHHH”, “not soluble”.

On to “MMDESLCGGLPPEICEQLSVEEQIIKIRLEKRRFGREVTIIEGINEKEFNLKKLASTLKSRLATGGTAKNGRIELQGDHRHRVKKILVELGFPEENITIID”, for which the “soluble on expression in E. coli” value was “soluble”. The result for “MAYFALGLATATKNRDGKIIEAFFPTPILAPSDALVAALAPIAGYQEGNQALDITAAQSAQLAAVFAAHQQAASAAFADKAANAKQPLVLVILASDDKPQSVAEGYLKLQLISHRLVKPHGTVLDGIFGLLHNIAWTNEGPIDLPELAERQIEARLAGRVLTVDCVDKFPKMVDYVVPAGIRIADTSRVRLGAHVGEGTTVMHEGFINFNAGTTGVSMVEGRISAGVVVGNGSDIGGGASIMGTLSGGGKVVVSIGENSLLGANAGLGFPLGDRCTVESGLYVTAGTKVRTLDKDGNQVDIVKARDLAGVSDLLFRRNSLTGQIECLANKSAVELNSELHKNN” reads “not soluble”; that for “MTVQIENEFLIATFAEEGAELVSLQSKETGIEYIWQGNPEFWARHAPVLFPIVGRLKEDTYMYQNQAYHLTQHGFARDQVFDVIEKGGEEVSFSLKSTKETKKKYPFDFELVITYTLEHQELTVNYQVEYTGKEEMYFGIGGHPAFNVPLESSLTFEDYYLSFSPKKSRTQIPLAGPFIDLANKTLAQTNTSFDLTHQLFENDAMIFETKGQTAITIATDESDHQVTLSYPEMPFVGIWSPTPKEAPFVCIEPWCGIADAVDATGQLAEKFGINKLPANELFKTQYMISVKLEHHHHHH”, “not soluble”. The result for “MAHHHHHHMKEEIPQLQNLERDLLKQRNKYLSKVGNLLNKDVVISNDEDNNKVVTTWGVCKRLEVITDESSEENKSGKGGSKDGGSNKREVPSSSSISGGVVHPNSSIEGKKYYYHFDLLRKIVGANFKKGIQVAGHRGYYFTGAGFFLHNAILQYAINFLVSKNYTPVYPPFFMKKNIMEECAELDDFEETLYKIASSGGNSTATTGTASGALVSKNLNQNDELSRDDLFLIATSEQPLCALHKDETIESKYLPLKYAGVSSCFRKEAGAHGKDIRGILRVHQFDKIEQFCLSLPQTSSKVHKQMMKTCEEFYQSLNIPYRIVSIVSGALNNAAAIKYDLEGYFPSSNQYRELVSCSNCTDYQSNNLNVKYVDSSVRITDVKEDRKKKENTGDHQDDDDDDEIGSDHEEFLKNFHTESRNNVHLLNGTMVAAQRFLCCLLENYQNGEGIVVPEKLRPYMNNVDFIPFIE” reads “not soluble”; that for “MTTATAGLAVELKQSTAQAHEKAEHSTFMSDLLKGRLGVAEFTRLQEQAWLFYTALEQAVDAVRASGFAESLLDPALNRAEVLARDLDKLNGSSEWRSRITASPAVIDYVNRLEEIRDNVDGPALVAHHYVRYLGNLSGGQVIARMMQRHYGVDPEALGFYHFEGIAKLKVYKDEYREKLNNLELSDEQREHLLKEATDAFVFNHQVFADLGKGL”, “soluble”. The result for “MSRYGKNLVHYIIVEHDDQRGQKPIDDDDEKNFYYHCSFTFETFFRATAFLLAPAVCAVREVPCRLTRTRYNATEYIEGYGWMISLQQGLGVAEFYRPWPLSVQLQRYTTPSRRSRFAVLTPQRKCHQNEANGQDLSLLILLSRIYPLCSNTSQTRRVAARKGKLS” reads “not soluble”; that for “MSLNASSISSRFKDLFVTPSIVFDFDGTLAIGHGPVLAYALCVAPEGSKDFLERVRRELRRYDDGQSIYRDGYDIVAKLASELGIDDGTMSVAYGESRKLLGSDLAPVEHVRGIKDILSSLKGHARLVLATNAPENGVHDLLRQWGVADLFDQLHFVVGKPAGLISIISDLQLDGPVLAVGDIYEFDLSPAAQLGADTALVGATATISEAKVSMRGDSIADLPLLAWVSSRVSSEGHHHHHH”, “soluble”. For “FCLTLRRRYTMGHHHHHHHHHHSSGHIEGRHMKLEQTLTLSPNLIGFNSNEGEKLLLTSRSREDFFPLSMQFVTQVNQAYCGVASIIMVLNSLGINAPETAQYSPYRVFTQDNFFSNEKTKAVIAPEVVARQGMTLDELGRLIASYGVKVKVNHASDTNIEDFRKQVAENLKQDGNFVIVNYLRKEIGQERGGHISPLAAYNEQTDRFLIMDVSRYKYPPVWVKTTDLWKAMNTVDSVSQKTRGFVFVSKTQDD”, the “soluble on expression in E. coli” value is “soluble”. With “MSLSAQGSQDGRFAGQLALVTGASRGIGAATAKALAAQGAHVVLVARTAKELEKVEEEIFEAGGSATIAPVDLSEPEGIARLATAISGRWSALDVLVINAAAFPTLTPVWQIDSREFNNALTLNVLATQALLAGFDGMLKKSKDARVIGVTSSVGATPRAYWGAYGASKAAFDVLLDCYAQEVRNTSAVRVAILDPGATRTKMRARAYPGENPESVKAPEVVAERMVALLGEQFSSPHRERVNQDEGHHHHHH” the entry was “soluble”; with “MAHHHHHHMVAKRKEFELTKVIQEATFLTFKGLDTHDVYNCCVPFKISGTYHIFGRVERRSEWVNSHVRLFRKTGHDEYTLVEHAMQYQLEDPFLVKINNEALFGGVRVTKDHGKVSGYVCDFYRGKIDDLHYFTSGPQNMKDIRLVVLADGKIGVFSHHKTSNTCITGFTIIDSLDDLCSQVIDSAKPIDHTLFGDAWGGVNQPYLLSTGKIGCISHHGYLDTDAHGEVINVYCITSFVYQPSANKCYDYKILGTKNCFPDYPAKALKLIDCAFVSGIVMREDGKCDLYSGVGDTREGRMVIDYPFEGHGTIADDLDF”, “not soluble”; with “MSALRSVLLLCWRDIGHPQGGGSEAYLQRIGAQLAASGIAVTLRTARYPGAPRHELVDGVRISRAGGRYSVYLWALLAMAAARCGLGPLRRVRPDVVVDTQNGWPFVARLLYGRRSLVLVHHCHREQWPVAGRMMGRLGWYVESMLSPRLHRRNQYVTVSLPSARDLIALGVDSERIAVVRNGLDEAPSPTLSGPRAPTPRVVVLSRLVPHKQIEDALAAVAELQPRIPGLHLDIVGGGWWRQRLVDHVHRLDIADAVTFHGHVDDVTKHHVLQSSWVHLLPSRKEGWGLAVIEAAQHGVPTIGYRSSGGLADSIVDGVTGILVDDRAELVAWLEQLLSDSVLRDQLGAKAQARSGEFSWRQSAEALRSVLEAVQASRFVSGVV”, “soluble”.
